# Molecular target: AtSAR1c-GFP (Arabidopsis thaliana) (UniProt O04834)
# Assay: co-IP
# UniProt O04834, sequence (O04834 whole entry): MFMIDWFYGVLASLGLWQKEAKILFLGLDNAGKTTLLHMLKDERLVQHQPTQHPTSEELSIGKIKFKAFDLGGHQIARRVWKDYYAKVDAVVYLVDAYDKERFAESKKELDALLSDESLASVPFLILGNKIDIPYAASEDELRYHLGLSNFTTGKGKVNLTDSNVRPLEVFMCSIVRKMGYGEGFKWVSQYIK
substance,measurement,value
endogenous AtPHF1 (from UniProt Q8GYE0 1-398) (natural protein),fold co-immunoprecipitated against AtSAR1b[H74L]-CFP,4 fold
same,fold co-immunoprecipitated against GFP,3 fold
same,"fold co-immunoprecipitated against GFP, normalised, Pi deficiency",30 fold

# Reference: article doi:10.1101/2025.01.09.632146
